In patent publication US20230340069A1:

Experiments:
[1] = molecular target: Polyclonal human IgG Gammanorm (human); test: Fc binding protein coupled to Praesto Pure45 agarose beads; polyclonal human IgG Gammanorm (2.2 mg/ml) loaded; mass of hIgG injected at 10% breakthrough, 6 min residence time
human IgG1 = test: ELISA, IgG1 antibody coated on plate, detection with Strep-Tactin-HRP

Row | Kd (human IgG1) [nM] | Substance | dynamic binding capacity [1] [mg/mL]
1 |  | R PROTEIN A | 37.4
2 | 3.4 | Protein A domain Z | 
